Assay results from patent publication JP2021054739A (dated 2021).

Target: T1, Recombinant Human CEACAM-5/CD66e Protein, CF (R&D SYSTEMS) (human, UniProt P06731 35-685)
T1 construct: Bought recombinant protein, immobilised on a CM5 chip by amine coupling; also called 抗原CEACAM5
T1 sequence (looked up): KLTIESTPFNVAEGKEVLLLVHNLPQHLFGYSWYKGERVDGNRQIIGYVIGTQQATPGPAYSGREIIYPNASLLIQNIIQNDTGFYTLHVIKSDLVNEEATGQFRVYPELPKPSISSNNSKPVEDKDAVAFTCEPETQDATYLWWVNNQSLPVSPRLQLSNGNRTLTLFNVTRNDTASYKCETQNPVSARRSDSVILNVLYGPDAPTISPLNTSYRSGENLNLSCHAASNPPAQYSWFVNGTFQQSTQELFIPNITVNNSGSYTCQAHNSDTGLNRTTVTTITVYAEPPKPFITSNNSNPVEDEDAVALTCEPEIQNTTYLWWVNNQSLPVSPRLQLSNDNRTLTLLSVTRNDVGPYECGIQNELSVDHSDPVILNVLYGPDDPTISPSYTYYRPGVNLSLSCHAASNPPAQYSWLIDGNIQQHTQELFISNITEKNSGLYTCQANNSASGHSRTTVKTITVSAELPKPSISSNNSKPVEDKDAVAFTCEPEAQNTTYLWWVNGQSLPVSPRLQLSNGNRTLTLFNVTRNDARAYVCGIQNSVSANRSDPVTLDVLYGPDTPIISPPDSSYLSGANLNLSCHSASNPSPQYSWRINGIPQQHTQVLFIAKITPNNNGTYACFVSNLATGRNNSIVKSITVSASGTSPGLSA
Assay: SPR, Biacore T200; CEACAM5 immobilised on CM5 (279 RU), CEA-V2122 as analyte, single-cycle kinetics, bivalent analyte fit; KD = kd1/ka1

Kd: 1.08 pM
B1: CEA-V2122 (scFv)
chain: QVKLEQSGAEVVKPGASVKLSCKASGFNIKDSYMHWLRQGPGQRLEWIGWIDPENGDTEYAPKFQGKATFTTDTSANTAYLGLSSLRPEDTAVYYCNEGTPTGPYYFDYWGQGTLVTVSSGGGGSGGGGSGGGGSENVLTQSPSSMSVSVGDRVNIACSASSSVPYMHWLQQKPGKSPKLLIYLTSNLASGVPSRFSGSGSGTDYSLTISSVQPEDAATYYCQQRSSYPLTFGGGTKLEIKGGGGSGGGGAEAGITGTWSDQLGDTFIVTAGADGALTGTYENAVGGAESRYVLTGRYDSAPATDGSGTALGWTVAWKNNSKNAHSATTWSGQYVGGADAKINTQWLLTSGTTNANAWKSTLVGHDTFTKVKPSAASHHHHHH
notes: Fusion of an scFv with a streptavidin mutant; also called scFv-V2122; CEA-Cupid
